Measurements from publication PMC2175255.

Biological target: erbB2 receptor tyrosine kinase (rat (endogenous in primary Schwann cells)) (UniProt P06494)
Assay: co-IP

Chain of UniProt P06494 (P06494 23-1257): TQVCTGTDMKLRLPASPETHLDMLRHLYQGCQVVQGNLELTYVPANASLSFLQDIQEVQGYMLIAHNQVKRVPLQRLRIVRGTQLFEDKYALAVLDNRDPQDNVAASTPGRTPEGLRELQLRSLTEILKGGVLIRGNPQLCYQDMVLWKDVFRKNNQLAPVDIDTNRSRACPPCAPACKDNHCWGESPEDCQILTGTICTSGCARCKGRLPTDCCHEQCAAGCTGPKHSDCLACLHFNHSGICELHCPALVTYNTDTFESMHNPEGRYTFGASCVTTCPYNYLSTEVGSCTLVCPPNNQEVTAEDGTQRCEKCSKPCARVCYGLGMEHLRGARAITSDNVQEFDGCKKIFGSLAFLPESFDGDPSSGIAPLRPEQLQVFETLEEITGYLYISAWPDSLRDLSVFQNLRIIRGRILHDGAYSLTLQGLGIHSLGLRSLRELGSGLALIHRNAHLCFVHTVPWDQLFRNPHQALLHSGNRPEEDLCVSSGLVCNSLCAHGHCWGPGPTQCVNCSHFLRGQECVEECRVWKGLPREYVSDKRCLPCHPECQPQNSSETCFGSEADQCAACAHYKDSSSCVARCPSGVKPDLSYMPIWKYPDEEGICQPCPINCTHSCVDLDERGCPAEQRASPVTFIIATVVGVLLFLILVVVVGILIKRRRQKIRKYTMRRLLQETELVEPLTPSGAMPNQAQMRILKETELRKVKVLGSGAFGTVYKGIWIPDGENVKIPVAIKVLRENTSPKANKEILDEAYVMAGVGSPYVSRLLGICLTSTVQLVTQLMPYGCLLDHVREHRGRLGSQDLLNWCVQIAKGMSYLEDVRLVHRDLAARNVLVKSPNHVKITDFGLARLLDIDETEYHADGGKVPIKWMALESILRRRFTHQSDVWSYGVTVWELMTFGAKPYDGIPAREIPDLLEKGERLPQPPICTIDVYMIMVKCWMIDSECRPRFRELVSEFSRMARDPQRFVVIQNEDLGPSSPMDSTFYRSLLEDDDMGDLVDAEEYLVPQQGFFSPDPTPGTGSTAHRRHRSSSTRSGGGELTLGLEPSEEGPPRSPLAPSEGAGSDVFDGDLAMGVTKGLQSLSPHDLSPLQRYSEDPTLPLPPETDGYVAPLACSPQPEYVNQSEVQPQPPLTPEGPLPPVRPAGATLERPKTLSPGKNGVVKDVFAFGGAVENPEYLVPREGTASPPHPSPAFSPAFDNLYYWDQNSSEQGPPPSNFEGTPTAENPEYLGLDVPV

- fold CD44 co-immunoprecipitated with rh-GGF2 against untreated cells: 2 fold
Substance: CD44 transmembrane glycoprotein (from UniProt P26051 22-503) (natural protein)
